Experimental data taken from patent US20190321401A1 (JUNO THERAPEUTICS, published 2019).

What was measured:
Test in all cases: activation reporter or marker
[1] = biological target: T1, HPV 16 E7(11-19), single-substitution variant Y1A (synthetic scanning library) peptide on HLA-A*02:01 (human)
T1 peptide: AMLDLQPET

[2] = biological target: T2, HPV 16 E7(11-19), single-substitution variant Y1N (synthetic scanning library) peptide on HLA-A*02:01 (human)
T2 peptide: NMLDLQPET

[3] = biological target: T3, HPV 16 E7(11-19), single-substitution variant Y1H (synthetic scanning library) peptide on HLA-A*02:01 (human)
T3 peptide: HMLDLQPET

[4] = biological target: T4, HPV 16 E7(11-19), single-substitution variant Y1L (synthetic scanning library) peptide on HLA-A*02:01 (human)
T4 peptide: LMLDLQPET

[5] = biological target: T5, HPV 16 E7(11-19), single-substitution variant Y1F (synthetic scanning library) peptide on HLA-A*02:01 (human)
T5 peptide: FMLDLQPET

[6] = biological target: T6, HPV 16 E7(11-19), single-substitution variant Y1T (synthetic scanning library) peptide on HLA-A*02:01 (human)
T6 peptide: TMLDLQPET

[7] = biological target: T7, HPV 16 E7(11-19), single-substitution variant Y1V (synthetic scanning library) peptide on HLA-A*02:01 (human)
T7 peptide: VMLDLQPET

[8] = biological target: T8, HPV 16 E7(11-19), single-substitution variant M2Q (synthetic scanning library) peptide on HLA-A*02:01 (human)
T8 peptide: YQLDLQPET

[9] = biological target: T9, HPV 16 E7(11-19), single-substitution variant M2L (synthetic scanning library) peptide on HLA-A*02:01 (human)
T9 peptide: YLLDLQPET

[10] = biological target: T10, HPV 16 E7(11-19), single-substitution variant L3A (synthetic scanning library) peptide on HLA-A*02:01 (human)
T10 peptide: YMADLQPET

[11] = biological target: T11, HPV 16 E7(11-19), single-substitution variant L3C (synthetic scanning library) peptide on HLA-A*02:01 (human)
T11 peptide: YMCDLQPET

[12] = biological target: T12, HPV 16 E7(11-19), single-substitution variant L3I (synthetic scanning library) peptide on HLA-A*02:01 (human)
T12 peptide: YMIDLQPET

[13] = biological target: T13, HPV 16 E7(11-19), single-substitution variant L3M (synthetic scanning library) peptide on HLA-A*02:01 (human)
T13 peptide: YMMDLQPET

[14] = biological target: T14, HPV 16 E7(11-19), single-substitution variant D4N (synthetic scanning library) peptide on HLA-A*02:01 (human)
T14 peptide: YMLNLQPET

[15] = biological target: T15, HPV 16 E7(11-19), single-substitution variant D4C (synthetic scanning library) peptide on HLA-A*02:01 (human)
T15 peptide: YMLCLQPET

[16] = biological target: T16, HPV 16 E7(11-19), single-substitution variant L5M (synthetic scanning library) peptide on HLA-A*02:01 (human)
T16 peptide: YMLDMQPET

[17] = biological target: T17, HPV 16 E7(11-19), single-substitution variant E8A (synthetic scanning library) peptide on HLA-A*02:01 (human)
T17 peptide: YMLDLQPAT

[18] = biological target: T18, HPV 16 E7(11-19), single-substitution variant E8R (synthetic scanning library) peptide on HLA-A*02:01 (human)
T18 peptide: YMLDLQPRT

[19] = biological target: T19, HPV 16 E7(11-19), single-substitution variant E8N (synthetic scanning library) peptide on HLA-A*02:01 (human)
T19 peptide: YMLDLQPNT

[20] = biological target: T20, HPV 16 E7(11-19), single-substitution variant E8C (synthetic scanning library) peptide on HLA-A*02:01 (human)
T20 peptide: YMLDLQPCT

[21] = biological target: T21, HPV 16 E7(11-19), single-substitution variant E8G (synthetic scanning library) peptide on HLA-A*02:01 (human)
T21 peptide: YMLDLQPGT

[22] = biological target: T22, HPV 16 E7(11-19), single-substitution variant E8H (synthetic scanning library) peptide on HLA-A*02:01 (human)
T22 peptide: YMLDLQPHT

[23] = biological target: T23, HPV 16 E7(11-19), single-substitution variant E8M (synthetic scanning library) peptide on HLA-A*02:01 (human)
T23 peptide: YMLDLQPMT

[24] = biological target: T24, HPV 16 E7(11-19), single-substitution variant E8P (synthetic scanning library) peptide on HLA-A*02:01 (human)
T24 peptide: YMLDLQPPT

[25] = biological target: T25, HPV 16 E7(11-19), single-substitution variant E8S (synthetic scanning library) peptide on HLA-A*02:01 (human)
T25 peptide: YMLDLQPST

[26] = biological target: T26, HPV 16 E7(11-19), single-substitution variant E8W (synthetic scanning library) peptide on HLA-A*02:01 (human)
T26 peptide: YMLDLQPWT

[27] = biological target: T27, HPV 16 E7(11-19), single-substitution variant E8V (synthetic scanning library) peptide on HLA-A*02:01 (human)
T27 peptide: YMLDLQPVT

[28] = biological target: T28, HPV 16 E7(11-19), single-substitution variant T9A (synthetic scanning library) peptide on HLA-A*02:01 (human)
T28 peptide: YMLDLQPEA

[29] = biological target: T29, HPV 16 E7(11-19), single-substitution variant T9C (synthetic scanning library) peptide on HLA-A*02:01 (human)
T29 peptide: YMLDLQPEC

[30] = biological target: T30, HPV 16 E7(11-19), single-substitution variant T9L (synthetic scanning library) peptide on HLA-A*02:01 (human)
T30 peptide: YMLDLQPEL

Measured: binding result

B1: TCR 57 (TCR, V domains shown)
Valpha: TQLLEQSPQFLSIQEGENLTVYCNSSSVFSSLQWYRQEPGEGPVLLVTVVTGGEVKKLKRLTFQFGDARKDSSLHITAAQPGDTGLYLCAGARNFNKFYFGSGTKLNVKP
Vbeta: GAVVSQHPSWVICKSGTSVKIECRSLDFQATTMFWYRQFPKQSLMLMATSNEGSKATYEQGVEKDKFLINHASLTLSTLTVTSAHPEDSSFYICSARSWRGGLEQFFGPGTRLTVL
recognises: all assays above
